Experimental data from doi:10.1101/266833 (bioRxiv, 2018).

Biological target: T1, yUpf1-HD (220-851) (S. cerevisiae, UniProt P30771 220-851)
T1 sequence (looked up): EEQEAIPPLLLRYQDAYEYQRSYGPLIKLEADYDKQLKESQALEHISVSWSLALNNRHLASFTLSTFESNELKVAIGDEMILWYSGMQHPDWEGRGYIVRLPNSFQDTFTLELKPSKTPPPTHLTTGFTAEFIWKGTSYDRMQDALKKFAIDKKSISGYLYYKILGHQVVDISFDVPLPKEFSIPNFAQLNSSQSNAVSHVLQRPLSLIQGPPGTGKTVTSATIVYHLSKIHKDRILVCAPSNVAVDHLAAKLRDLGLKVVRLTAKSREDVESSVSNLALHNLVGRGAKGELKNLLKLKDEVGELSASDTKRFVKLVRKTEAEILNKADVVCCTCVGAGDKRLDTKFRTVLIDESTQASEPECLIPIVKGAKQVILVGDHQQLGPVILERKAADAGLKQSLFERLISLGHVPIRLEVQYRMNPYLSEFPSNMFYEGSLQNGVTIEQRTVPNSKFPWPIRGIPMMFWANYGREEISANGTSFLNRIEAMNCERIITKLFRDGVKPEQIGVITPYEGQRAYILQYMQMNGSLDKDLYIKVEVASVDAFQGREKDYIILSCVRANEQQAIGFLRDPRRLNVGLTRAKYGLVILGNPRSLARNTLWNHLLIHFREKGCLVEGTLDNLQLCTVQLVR
Assay: pull-down

B1: CBP-Nmd4 (natural protein, S. cerevisiae, UniProt Q12129 1-218, looked up)
chain: MTQYNFIIDASAFEKGLGNIKRWCSDCTEAVTLNFYIPTFTLNELDFLQQRRKSFAARESLKFIDRLDDSKFANLKVFIEFPEVLDIILWSDVMEHNDSSGKINIAKLPKRLKNLLKSCIYKCYLEGNEGLHWFLISEDPQIREMAMQCNIPSCSIVDVDSILSKDMNDKSFRESEKFNNMMLKNGTKEESENGREIIRTNFNKTVYASRGTGELWSP
Q: Does B1 bind?
A: binds
